Experimental data: the Human Domainome abundance scans (Beltran et al. 2025)

B1: Protein maelstrom homolog, residues 3 to 71; numbered along this chain, Q96JY0 (parent)
chain: NRKASRNAYYFFVQEKIPELRRRGLPVARVADAIPYCSSDWALLREEEKEKYAEMAREWRAAQGKDPGP
B2: Homeobox protein cut-like 1, residues 941 to 1008; numbered along this chain, P39880 (parent)
chain: QEVDTIELTRQVKEKLAKNGICQRIFGEKVLGLSQGSVSDMLSRPKPWSKLTQKGREPFIRMQLWLNG

Variants of: B1
Test: abundance fitness (aPCA) (normalised: wild type 0, dead -1); higher = more abundant; growth selection in yeast, the domain comes from the species named
Settings: Homo sapiens

Abundance fitness: each site, then its substitutions
R2: A -0.407; Y 0.078; C 0.123; I 0.162; P 0.06; W -0.141; E 0.124; L -0.013; D 0.122; K 0.045; S 0.091; G 0.021; T 0.126; V -0.288; N -0.2; F -0.095; H 0.058; M 0.093
K3: N -0.001
R6: K -0.419; C -0.123; E 0.061; L 0.046; M -0.064; A -0.097
S5: P -0.24; Q -0.088; L -0.593; T -0.202; M -0.118; C -0.655; I 0.278; K -0.206; D 0.12; R -0.228; A 0.013; V -0.087; G -0.03; Y -0.36; E 0.137
A4: D -0.462; V -0.001; H -1.04; K -0.095; L 0.048; T 0.049; M -0.011; S 0; N -0.371; P -0.246; W -0.262; R -0.09; E 0.159; C -0.395; G 0.032

Variants of: B2
Test: as above
Settings: Homo sapiens

Abundance fitness of substitutions, site by site:
I60: A -0.073; M -0.054; L -0.015; C -0.139; V 0.025; E -0.152; P -0.911; S -0.141; K 0.013; T -0.008; D -0.29; N -0.051; R 0.071; Q -0.142; F -0.205; Y 0.004; G -0.383; W -0.334
P58: L 0.109; Q -0.036; C 0.099; W -0.007; R -0.049; S -0.093; G -0.201; Y -0.1; A -0.102; V -0.014; H -0.135; I 0.117; T 0.052; F 0.006; N 0.025; D -0.13; K -0.04
G68: P -0.576; T -0.402; F -0.265; A -0.046; D 0.013; I -0.662; W -0.624; Q -0.212; C -0.258; V -0.565; S -0.229; L -0.343; H -0.455; R -0.14; K -0.091
M62: F 0; W -0.335; S -0.619; P -0.93; A -0.141; I -0.346; C -0.226; R -0.855; T -0.274; L -0.227; N -1.08; D -0.86; V -0.388; Y -0.959; H -1.33; K -0.793; G -0.591
K54: G -0.223; T -0.101; I -0.192; E 0.159; P -0.439; M -0.263; H -0.111; Y -0.431; L -0.174; A 0.011; W -0.327; F -0.199; V -0.346; D -0.098; N -0.319; R -0.074; Q -0.107; C -0.317
E57: Q -0.147; Y -0.453; I -0.097; P -0.744; F -0.294; W -0.148; V -0.192; A -0.046; M -0.203; R -0.223; H -0.213; S -0.192; K -0.091; T -0.15; N -0.055; L -0.194; D -0.162; G -0.126
Q53: W -0.173; E -0.139; C 0.012; N -0.045; L -0.082; M -0.095; H -0.179; S -0.022; K 0.076; I -0.119; V -0.095; D 0.032; F -0.217; G -0.132; Y -0.27; R -0.053; T -0.014; P 0.031
R56: H -0.676; I -0.6; V -0.39; L -0.418; P -1.06; Y -0.444; T -0.373; S -0.598; K -0.045; M -0.238; F -0.659; N -1.16; W -0.456; D -1.13; A -0.479; Q -0.287; E -1.2; C -0.525
G55: V -0.01; Q 0.033; I 0.093; N -0.792; K -0.163; P -0.517; E 0.17; D 0.084; F 0.042; T -0.162; Y -0.104; W -0.189; R -0.38; H -0.132; M -0.018; C -0.17; L -0.045; A 0.016
T52: S 0.085; Q -0.22; Y -0.143
W65: E -0.968; D -0.994; G -1.01; P -1.22; Q -1.24; A -0.666; T -1.31; H -0.864; N -1.45; M -0.744; K -0.715; F -0.326; C -0.718; Y -0.309; I -1.3; R -0.76
F59: A -0.813; C -0.817; H -1.18; G -1.17; Y -0.006; R -0.7; T -0.686; N -1.2; M -0.568; S -0.995; I -0.525; P -0.833; W -0.128; Q -1.13; V -0.761; E -0.431; K -0.954
L64: V -0.135; G -0.074; S 0.068; H -0.137; P -0.562; T 0.015; Q 0.144; C -0.181; A 0.087; K 0.158; N 0.065; R 0.103; Y 0.005; I -0.195; E 0.185; F -0.326; M -0.049
Q63: M -0.124; W -0.032; L -0.424; K 0.017; D -0.389; H 0.041; R 0.012; E -0.272; A -0.268; Y -0.069; P -0.724; G -0.098; C -0.441; F -0.258; T -0.184; V -0.262; S -0.219; N -0.317; I -0.2
R61: S -0.386; M -0.308; P -0.788; I -0.706; C -0.277; G -0.582; T -0.131; W -0.619; L -0.174; H -0.393; Q -0.131; E -0.479; V -0.487; A -0.183; Y -0.365; N -0.041; F -0.991
L66: M -0.244; K -0.63; P -0.959; T -0.8; V -0.223; Y -0.762; W -0.35; E -0.909; D -1.21; I -0.166; N -0.568; G -0.884; C -0.499; A -0.62; Q -1.17; S -0.82
N67: P -0.758; A -0.03; G -0.04; E 0.072; M -0.186; C -0.193; V -0.191; H -0.128; Q -0.088; D -0.21; I -0.326; L -0.128; Y -0.197; S -0.031; K 0.045; T -0.041; R -0.016
